The values that follow come from publication PMC8812904.

A short description of series [1]: immunoblot of TuMV CP, N. benthamiana. Particulars: glycan lost; control: AtVSR4-myc co-expression. (In general: Immunoblotting shows a protein as a band on a membrane.)
Series [2] is described as follows: confocal counting of punctate bodies, 2 dpai. Particulars: glycan lost; control: AtVSR4-myc co-expression.
Series [3] is described as follows: immunoblot with TBSV P19 co-expression, 2 dpai. To be noted: glycan lost; control: AtVSR4 wild type with P19.
Series [4] in a line: qRT-PCR of TuMV (+) and (-) RNA, N. benthamiana. To be noted: glycan lost; control: AtVSR4-myc co-expression. (In qPCR the cycle at which signal appears reflects the starting amount.)
Series [5] can be described thus: GFP fluorescence under UV, N. benthamiana, 3 dpai. To be noted: glycan lost; control: AtVSR4-myc co-expression.
Series [6] in a line: symptom observation, 16 dpi. Particulars: glycan lost; control: AtVSR4oe transgenic Arabidopsis.
Series [7] in a line: qRT-PCR of TuMV RNA, transgenic Arabidopsis, 16 dpi. Particulars: glycan lost; control: AtVSR4oe transgenic Arabidopsis.
A short description of series [8]: anti-myc immunoblot, N. benthamiana, 2 dpai. To be noted: glycan lost; control: AtVSR4-myc wild type.

B1: AtVSR4 (vacuolar sorting receptor 4): AtVSR4TM (protein)
parent chain: MKQLLCYLPWLLLLSLVVSPFNEARFVVEKNSLSVTSPESIKGTHDSAIGNFGIPQYGGSMAGTVVYPKENQKSCKEFSDFSISFKSQPGALPTFLLVDRGDCFFALKVWNAQKAGASAVLVADNVDEPLITMDTPEEDVSSAKYIENITIPSALVTKGFGEKLKKAISGGDMVNLNLDWREAVPHPDDRVEYELWTNSNDECGVKCDMLMEFVKDFKGAAQILEKGGFTQFRPHYITWYCPHAFTLSRQCKSQCINKGRYCAPDPEQDFSSGYDGKDVVVENLRQLCVYKVANETGKPWVWWDYVTDFQIRCPMKEKKYNKDCAESVIKSLGIDSRKIDKCMGDPDADLDNPVLKEEQDAQVGKGTRGDVTILPTLVVNNRQYRGKLEKSAVLKALCSGFEESTEPAICLSTDMETNECLDNNGGCWQDKSANITACKDTFRGKVCVCPIVDGVRFKGDGYSHCEPSGPGRCTINNGGCWHEERDGHAFSACVDKDSVKCECPPGFKGDGVKKCEDINECKEKKACQCPECSCKNTWGSYECSCSGDLLYMRDHDTCISKTGSQVKSAWAAVWLIMLSLGLAAAGAYLVYKYRLRQYMDSEIRAIMAQYMPLDSQPEVPNHTNDERA
With B1, the “other: viral replication, fold_change” value in series [1] and in series [4] was “increases” each time. The “other: formation of 6K2 punctate bodies” value in series [2] is “increases”. Besides, the expression_or_secretion result in series [3] was “decreases”. In addition, the “other: viral replication” value in series [5] is given as “increases”.

B2: AtVSR4 (vacuolar sorting receptor 4): AtVSR4TMoe (protein)
parent chain: MKQLLCYLPWLLLLSLVVSPFNEARFVVEKNSLSVTSPESIKGTHDSAIGNFGIPQYGGSMAGTVVYPKENQKSCKEFSDFSISFKSQPGALPTFLLVDRGDCFFALKVWNAQKAGASAVLVADNVDEPLITMDTPEEDVSSAKYIENITIPSALVTKGFGEKLKKAISGGDMVNLNLDWREAVPHPDDRVEYELWTNSNDECGVKCDMLMEFVKDFKGAAQILEKGGFTQFRPHYITWYCPHAFTLSRQCKSQCINKGRYCAPDPEQDFSSGYDGKDVVVENLRQLCVYKVANETGKPWVWWDYVTDFQIRCPMKEKKYNKDCAESVIKSLGIDSRKIDKCMGDPDADLDNPVLKEEQDAQVGKGTRGDVTILPTLVVNNRQYRGKLEKSAVLKALCSGFEESTEPAICLSTDMETNECLDNNGGCWQDKSANITACKDTFRGKVCVCPIVDGVRFKGDGYSHCEPSGPGRCTINNGGCWHEERDGHAFSACVDKDSVKCECPPGFKGDGVKKCEDINECKEKKACQCPECSCKNTWGSYECSCSGDLLYMRDHDTCISKTGSQVKSAWAAVWLIMLSLGLAAAGAYLVYKYRLRQYMDSEIRAIMAQYMPLDSQPEVPNHTNDERA
As to B2, in series [6], the “other: viral symptom severity in plants” value is reported as “increases”. Besides, in series [7], the “other: viral replication” value is “increases”.

B3: AtVSR4 (vacuolar sorting receptor 4): AtVSR4TM-myc (protein)
parent chain: MKQLLCYLPWLLLLSLVVSPFNEARFVVEKNSLSVTSPESIKGTHDSAIGNFGIPQYGGSMAGTVVYPKENQKSCKEFSDFSISFKSQPGALPTFLLVDRGDCFFALKVWNAQKAGASAVLVADNVDEPLITMDTPEEDVSSAKYIENITIPSALVTKGFGEKLKKAISGGDMVNLNLDWREAVPHPDDRVEYELWTNSNDECGVKCDMLMEFVKDFKGAAQILEKGGFTQFRPHYITWYCPHAFTLSRQCKSQCINKGRYCAPDPEQDFSSGYDGKDVVVENLRQLCVYKVANETGKPWVWWDYVTDFQIRCPMKEKKYNKDCAESVIKSLGIDSRKIDKCMGDPDADLDNPVLKEEQDAQVGKGTRGDVTILPTLVVNNRQYRGKLEKSAVLKALCSGFEESTEPAICLSTDMETNECLDNNGGCWQDKSANITACKDTFRGKVCVCPIVDGVRFKGDGYSHCEPSGPGRCTINNGGCWHEERDGHAFSACVDKDSVKCECPPGFKGDGVKKCEDINECKEKKACQCPECSCKNTWGSYECSCSGDLLYMRDHDTCISKTGSQVKSAWAAVWLIMLSLGLAAAGAYLVYKYRLRQYMDSEIRAIMAQYMPLDSQPEVPNHTNDERA
Turning to B3, the expression_or_secretion entry in series [8] is “decreases”.
